{"source": "the DeepSol protein solubility set"}
{"experiment": "soluble on expression in E. coli; label from the status in PepcDB or PDB records"}
{"sequence": "MGHHHHHHSHMLQPPKIVAELSANHNQDLNLAKESLHAIKESGADFVKLQTYTPSCMTLNSKEDPFIIQGTLWDKENLYELYQKASTPLEWHAELFELARKLDLGIFSSPFSSQALELLESLNCPMYKIASFEIVDLDLIEKAARTQKPIILSSGIATHTELQDAISLCRRVNNFDITLLKCVSAYPSKIEDANLLSMVKLGEIFGVKFGLSDHTIGSLCPILATTLGASMIEKHFILNKSLQTPDSAFSMDFNGFKSMVEAIKQSVLALGEEEPRINPKTLEKRRFFARSLFVIKDIQKGEALTENNIKALRPNLGLHPKFYKEILGQKASKFLKANTPLSADDIERSL", "soluble on expression in E. coli": "soluble"}
{"sequence": "MGHHHHHHSHMLSHNTMMKQRKQQATAIMKEVHGNDVDGMDLGKKVSIPRDIMLEELSHLSNRGARLFKMRQRRSDKYTFENFQYQSRAQINHSIAMQNGKVDGSNLEGGSQQAPLTPPNTPDPRSPPNPDNIAPGYSGPLKEIPPEKFNTTAVPKYYQSPWEQAISNDPELLEALYPKLFKPEGKAELPDYRSFTRVATPFGGFEKASRMVKFKVPDFELLLLTDPRFMSFVNPLSGRRSFNRTPKGWISENIPIVITTEPTDDTTVPESEDL", "soluble on expression in E. coli": "not soluble"}
{"sequence": "MGHHHHHHSHMMAALSRKMRVAPFKVGPDYIDPGYHGMAAGHQGRNLDSVMCGIDLIGPLYAHGSANADIAVVEGVMGLFDGRIAQGQNTADAQAQGSSAEIAATLGLPVVLVVDVRGMSQSVGAVVRGFATADPHVRIAGVILNKVGTDRHAEVCREAVEAVGVRVLGAIP", "soluble on expression in E. coli": "not soluble"}
{"sequence": "MGHHHHHHSHMNIQKDGKNVTSRREWIEKLVESKGKVDIEELASHFGVSSMTIRRDLMHLEEHNKLIRTHGGAVAPSSLIGETPYAQKQTEHLMEKQLIAKQASTLVPEGATILVDSGTTTLELIKLLKDRNDLTIVTNDITIAAELVNASPKCIVTGGELQLGVGALFGPQTEGMIRELHVDLFFLGAHAVDEAAGVTAPTLEKAAIKKRMMEAAQTTWLICDSSKFSKRAFANVCQLTKLEGIITDANFLTSFKHENYHDNMVIAQA", "soluble on expression in E. coli": "soluble"}
{"sequence": "MGHHHHHHSHMNPLKNIKCTKCPEVFQGVEKLVFHMRAQHFIFMCPRCGKQFNHSSNLNRHMNVHRGVKSHSCGICGKCFTQKSTLHDHLNLHSGARPYRCSYCDVRFAHKPAIRRHLKEQHGKTTAENVL", "soluble on expression in E. coli": "soluble"}
{"sequence": "MGHHHHHHSHMNQSRSRSDGGSEETLPQDHNHHENERRWQQERLHREEAYYQFINELNDEDYRLMRDHNLLGTPGEITSEELQQRLDGVKEQLASQPDLRDGTNYRDSEVPRESSHEDSLLEWLNTFRRTGNATRSGQNGNQTWRAALPDTS", "soluble on expression in E. coli": "not soluble"}
{"sequence": "MGHHHHHHSHMQENQQITKKEQYNLNKLQKRLRRNVGEAIADFNMIEEGDRIMVCLSGGKDSYTMLEILRNLQQSAPINFSLVAVNLDQKQPGFPEHVLPEYLEKLGVEYKIVEENTYGIVKEKIPEGKTTCSLCSRLRRGILYRTATELGATKIALGHHRDDILQTLFLNMFYGGKMKGMPPKLMSDDGKHIVIRPLAYCREKDIQRFADAKAFPIIPCNLCGSQPNLQRQVIADMLRDWDKRYPGRIETMFSAMQNVVPSHLCDTNLFDFKGITHGSEVVNGGDLAFDREEIPLQPACWQPEEDENQLDELRLNVVEVK", "soluble on expression in E. coli": "soluble"}
{"sequence": "MGHHHHHHSHMQTFQLDTERLCQAAKLYQHTKSDFGLNGMIQLSGSCNNMSLSVLGSIGGCAILRLELLEAARLHSSKDSSKSAIYSFRNASSLGREFTHGGELFGPKMESASLSFYGHHGVKYVEAQFVHDSSSKTVHTAAMQPITIPPSCAFDDREANGIVTLSTKTAAALVKWLKQHTKTCQSPVKVSISEILGVMVLSVGDASMTVDVTPVNVSSGKKTRGGNKASDSGTISADATVHVNGHCLIRSLIVCKVPGCTTPRVKFHACGILEVDGAPVKQGELTQVKLSVALLNVDSSTGRVLKEPVVTGASKDRGASKSEDADGSPPVPDHPKESLTSDSDSSVPGPRSTDLSSLTHTPSDRFSSDLRSGCGGQQFLKRPPPKKDREPTTKRPKLHFNHFP", "soluble on expression in E. coli": "soluble"}
{"sequence": "MGHHHHHHSHMRKNESYLNQPAPPIPIPTLSLMGGCREHFENHWKGRARWLMPVIPALWEAKAGRSPEVRSSKPAWPTWRNPIFTKNTKISQVLELFLNYQSLICALEKQKRQKGSLAIFCWSFQGGCVSKRPDVPSLKSQKPKRKRITGRKRLSKGFWSLLFSNLGRF", "soluble on expression in E. coli": "not soluble"}
{"sequence": "MGHHHHHHSHMRSTGSAPSCSGESARAHRRRAGAMSIRSSRTKHSTAQKGAHRRRVSLAGFFNLIYKRQDLGLDFLREMSEPLCTSRPVLLPLNLKNIAPGRCISLTPFGHTDNLGFQCETCTDPNLNKSIPPKLEDPAFSKNELCSVTLTFYQQAEQVIQHKQFYLSLLNLSMDAVRNSLTQPGLLYCYLVTKAFMLEGFPIFFEETNGMLGLYLVFRRDLLHLHESYLRLLIDNLGNYDISVDSVGRSYIIKLCPVGNVSRIPTIPADNVCLAVNNLDYGDDVKASWIECFNIVSRLSQQ", "soluble on expression in E. coli": "not soluble"}
{"sequence": "MGHHHHHHSHMSDWLEHSVQVEVAVPVARAWELWSDLEQMPRWMKWIDSVQVQKDDPELSRWKLASQGFEFSWLSRITRLVPQQLIQWESVDGLPNRGAIRFYDRQDHSIVRLSISYAIPGGLGPLMDKLFLGRIVEGTLKADLDRFRHYAESPR", "soluble on expression in E. coli": "not soluble"}
{"sequence": "MGHHHHHHSHMSTKVPIYLKRGSRKGKKEKLRDLLSSDMISPPLGDFRHTIHIGSGGGSDMFGDISFLQGKFHLLPGTMVEGPEEDGTFDLPFQFTRTATVVGRELPDGPSPLLKNAISLPVIGGPQALTLPTAQAPPKPPRLHLETPQPSPQEGGSVDIWRIPETGSPNSGLTPESGAEEPFLSNASSLLSLHVDLGPSILDDVLQIMDQDLDSMQIPT", "soluble on expression in E. coli": "not soluble"}
{"sequence": "MGHHHHHHSHMSTVAFHTLGCKVNHYETEAIWQLFKQGGYERTEYEKKADVYVINTCTVTNTGDKKSRQVIRRAVRQNPDAVICVTGCYAQTSPAEIMAIPGVDIVVGTQDREKMLGYIEEFRKERQPINAVRNIMKTRVYEELDVPYFTDRTRASLKIQEGCNNFCTFCIIPWARGLMRSRDGKEVIKQAQQLVDAGYKEIVLTGIHTGGYGEDIKDYNLAGLLRDMEAEVGGLKRLRISSIEASQISDEVIEVLDKSEVVVRHLHIPLQSGSNTVLKRMRRKYTMEFFQERLDRLKEALPGLAITSDVIVGFPGETEEEFMETYNFIKENRFSELHVFPYSKRTGTPAARMEDQVPEDVKNDRVHRLIELSNQLAKEYASAFEGEVLEIIPEEQFKDGDREGLYVGYTDNYLKIVFEGSEELIGKLVKVKITKAGYPYNEAQFVRVLEDDVKKESASA", "soluble on expression in E. coli": "soluble"}
{"sequence": "MGHHHHHHSHMTAPFFPRILGAVAFLNQETEPLTMNLQHHFLIAMPALQDPIFRRSVVYICEHNTNGAMGIIVNKPLENLKIEGILEKLKITPEPRDESIRLDKPVMLGGPLAEDRGFILHTPPSNFASSIRISDNTVMTTSRDVLETLGTDKQPSDVLVALGYASWEKGQLEQEILDNAWLTAPADLNILFKTPIADRWREAAKLIGVDILTMPGVAGHA", "soluble on expression in E. coli": "soluble"}
{"sequence": "MGHHHHHHSHMTDCEFGYIYRLAQDYLQCVLQIPQPGSGPSKTSRVLQNVAFSVQKEVEKNLKSCLDNVNVVSVDTARTLFNQVMEKEFEDGIINWGRIVTIFAFEGILIKKLLRQQIAPDVDTYKEISYFVAEFIMNNTGEWIRQNGGWENGFVKKFEPKSGWMTFLEVTGKICEMLSLLKQYC", "soluble on expression in E. coli": "not soluble"}
{"sequence": "MGHHHHHHSHMTDIKILDACCGSRLFWFDKNEPHTTFMDVRQEKFEMHGKKINVNPDVIGDFRDMPFESNSFNLVVFDPPHLKYVGQNSIMKAQYGQLDKENWKEDISKGFEECMRVLKVGGTLVFKWSDCQVNVREVLSAIPFKPLFGQQRGTTHWMTFVKFELTGNGG", "soluble on expression in E. coli": "not soluble"}
{"sequence": "MGHHHHHHSHMTSETPDYLLKYAAISSSEQRQSYKNDFNAEYSEYRDLHARIERITRRFTQLDAQLRQLSQGSEEYETTRGQILQEYRKIKKTNTNYSQEKHRCEYLHSKLAHIKRLIAEYDQRQLQAWP", "soluble on expression in E. coli": "soluble"}
